According to paper PMC11104609, “Discovery of allosteric regulators with clinical potential to stabilize alpha-L-iduronidase in mucopolysaccharidosis type I” (PLOS ONE, 2024):

Key:
IDUA [1] = biological target: T1, IDUA (Homo sapiens, UniProt P35475); assay: Denaturation prevention (isothermal denaturation) assay with SYPRO Orange; assay type: binding; parameters: purchased R&D Systems; settings: pH 7.0 and 37 °C, no compound
T1 sequence (P35475 28-653): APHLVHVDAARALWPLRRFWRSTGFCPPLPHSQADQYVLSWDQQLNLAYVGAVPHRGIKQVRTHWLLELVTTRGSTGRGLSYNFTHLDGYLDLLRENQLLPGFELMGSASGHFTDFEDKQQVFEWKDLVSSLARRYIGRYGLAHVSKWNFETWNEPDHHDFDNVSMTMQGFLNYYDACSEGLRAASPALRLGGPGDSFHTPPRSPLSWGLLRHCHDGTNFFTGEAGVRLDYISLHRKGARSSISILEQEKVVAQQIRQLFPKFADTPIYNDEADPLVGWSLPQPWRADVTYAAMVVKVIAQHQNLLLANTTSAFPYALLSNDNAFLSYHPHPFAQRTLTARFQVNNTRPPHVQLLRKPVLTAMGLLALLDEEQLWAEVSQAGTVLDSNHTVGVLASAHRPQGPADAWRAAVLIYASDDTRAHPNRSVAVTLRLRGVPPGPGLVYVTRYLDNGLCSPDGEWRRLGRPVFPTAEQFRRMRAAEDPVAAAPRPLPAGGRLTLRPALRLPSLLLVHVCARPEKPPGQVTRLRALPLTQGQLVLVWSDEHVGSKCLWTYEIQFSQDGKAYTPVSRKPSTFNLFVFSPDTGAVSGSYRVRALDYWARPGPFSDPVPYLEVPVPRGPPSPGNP
Description: The capacity of the compounds to stabilize IDUA in neutral pH buffer was assessed using the denaturation prevention assay. Briefly, rhIDUA (obtained from the Institute of Biotechnology and Biomedicine in the UAB, Bellaterra, Spain) was combined to a final concentration of 1 μM with 5X SYPRO Orange and 30 μM of the corresponding compound in a final reaction volume of 25 μL in 100 mM Hepes, 20 mM MgCl2, pH 7 buffer, or 25 mM NaAc, 150 mM NaCl, pH 5.2. Reactions were incubated at 37 °C, and SYPRO Orange fluorescence intensity was monitored at the indicated time points using Glomax® Discover microplate reader (Promega, Madison, WI, USA). Two independent experiments in triplicate at one concentration (30μM) of compound #18 (GT-01803) were performed for denaturation prevention assays.

IDUA [2] = biological target: T1, IDUA; assay: IDUA enzymatic activity in patient-derived fibroblasts after rhIDUA with or without compound (4-MUI substrate); assay type: cell-based; parameters: Institute of Biotechnology and Biomedicine, Autonomous University of Barcelona (UAB), Bellaterra, Spain; settings: rhIDUA 1.25 nM alone
Description: Fibroblasts derived from Hurler (GM00798) and Hurler/Scheie patients (GM02845, GM00512, GM01898, GM00963) were purchased from Coriell (Camden, NJ). Fibroblasts were cultured in Dulbecco’s modified Eagle’s medium (DMEM, Gibco) supplemented with 10% inactivated fetal bovine serum (FBS, Gibco) and 1% penicillin-streptomycin (Thermo Fisher Scientific, Waltham, MA, USA) (growth medium) at 37 °C under 5% CO2. The effect of the protein and/or compound in enhancing IDUA enzymatic activity was evaluated as follows: The specified patient-derived fibroblasts were seeded at 4x10^4 cells per well in 12-well cell culture plates in growth medium. Subsequently, cells were incubated with indicated dose of rhIDUA (obtained from the Institute of Biotechnology and Biomedicine in the UAB, Bellaterra, Spain) in the absence or presence of the compound #18 (GT-01803) for the specified incubation times at 50 μM. After incubation, cells were washed with PBS and detached using Trypsin-EDTA solution (Sigma Aldrich, St. Louis, MO, USA) to prepare cell pellets. The pellets were stored at -80 °C until activity assays were performed. IDUA activity in cell lysates was measured using 4-methylumbelliferyl IDUA substrate (4-MUI, Glycosynth Ltd., #44076, Warrington, UK). Briefly, lysates were resuspended in 120 μL of 0.9% NaCl containing 0.01% Triton X-100 lysis buffer to promote membrane disruption. Next, the cell suspension was sonicated and centrifuged to pellet insoluble materials. Then, 25 μL of lysates were mixed with 25 μL of 200 μM 4-MUI substrate solution in 0.4 M sodium formate, pH 3.5, 0.2% Triton X-100 buffer and incubated for 60 mins at 37 °C. The reaction was stopped by adding 200 μL of 0.5 M Glycine/0.3 M NaOH buffer, pH 10. The liberated 4-methylumbelliferone (4-MU) was measured on a Glomax® Discover microplate reader with excitation at 340 nm and emission at 460 nm. Protein quantification was determined using Pierce BCA Protein Assay Kit (Thermo Fisher Scientific, Waltham, MA, USA). Measurements were interpolated in a 4-MU standard curve and normalised by protein quantity.
For Fig 6A, rhIDUA concentrations of 0.187, 0.375 and 1.25 nM were tested in GM02845 fibroblasts over a 96-hour period, both in the presence and absence of the compound #18 (GT-01803) at 50 μM. In Fig 6B, 1.25 nM of rhIDUA was evaluated in GM02845, GM00798, GM00512, and GM00963 fibroblasts for 96h, with and without the compound #18 (GT-01803) at 50 μM. In Fig 6C, a concentration of 1.25 nM of the protein was applied to fibroblasts for 4, 8, 24 and 96h, with and without the compound #18 (GT-01803) at 50 μM.

stability of rhIDUA at physiological conditions (IDUA [1]): unstable
mean IDUA cell activity at 96h (IDUA [2]; GM02845 fibroblasts (Fig 6C)): 75.63 nmol/h/mg
mean IDUA cell activity (IDUA [2]; GM02845 fibroblasts, 96 h (Fig 6A)): 53.37 nmol/h/mg
B1: rhIDUA: recombinant human alpha-L-iduronidase, enzyme replacement therapy protein (protein, UniProt P35475 28-653, looked up)
Alpha-L-iduronidase: APHLVHVDAARALWPLRRFWRSTGFCPPLPHSQADQYVLSWDQQLNLAYVGAVPHRGIKQVRTHWLLELVTTRGSTGRGLSYNFTHLDGYLDLLRENQLLPGFELMGSASGHFTDFEDKQQVFEWKDLVSSLARRYIGRYGLAHVSKWNFETWNEPDHHDFDNVSMTMQGFLNYYDACSEGLRAASPALRLGGPGDSFHTPPRSPLSWGLLRHCHDGTNFFTGEAGVRLDYISLHRKGARSSISILEQEKVVAQQIRQLFPKFADTPIYNDEADPLVGWSLPQPWRADVTYAAMVVKVIAQHQNLLLANTTSAFPYALLSNDNAFLSYHPHPFAQRTLTARFQVNNTRPPHVQLLRKPVLTAMGLLALLDEEQLWAEVSQAGTVLDSNHTVGVLASAHRPQGPADAWRAAVLIYASDDTRAHPNRSVAVTLRLRGVPPGPGLVYVTRYLDNGLCSPDGEWRRLGRPVFPTAEQFRRMRAAEDPVAAAPRPLPAGGRLTLRPALRLPSLLLVHVCARPEKPPGQVTRLRALPLTQGQLVLVWSDEHVGSKCLWTYEIQFSQDGKAYTPVSRKPSTFNLFVFSPDTGAVSGSYRVRALDYWARPGPFSDPVPYLEVPVPRGPPSPGNP
